This assay concerns the target LlaKI restriction endonuclease (Lactococcus lactis KLDS4 (endogenous)). Put plainly: SEC; Sephadex G-200 10/30 column, buffer B-100 (10 mM Tris-HCl pH 7.5, 1 mM EDTA, 10 mM 2-Mercaptoethanol, 100 mM NaCl), 0.5 mL/min; calibrated with protein standards; LlaKI found by assay of cleavage activity of the fractions; native about 112 kDa against 50 kDa denatured. Background: In gel filtration, larger molecules generally elute earlier.

Usually stoichiometry N stands for a count of units in the complex or per binding partner.

In turn, LlaKI restriction endonuclease (enzyme) registered a stoichiometry N of 2.

These data come from article PMC4392985.
